{"source": "paper PMC7241714", "about": "“Structure-function investigation of 3-methylaspartate ammonia lyase reveals substrate molecular determinants for the deamination reaction” (PLoS ONE, 2020)", "molecules": {"B1": {"name": "3-methylaspartate ammonia lyase (ChMAL) (Carboxydothermus hydrogenoformans Z-2901) (protein)", "chain": "MRIKDVLFVKGSSGFYFDDQKAIKSGAVTDGFTYKGKPLTPGFSRVRQGGEAVSIMLFLENGEIAVGDCVAVQYSGVDGRDPVFLADNFIEVLEEEIKPRLVGYNLVRFREAARYFTNLTDKRGKRYHTALRYGLTQALLDAVAKINRTTMAEVIAEEYGLDLTLNPVPLFAQSGDDRYINADKMILKRVDVLPHGLFNHPAKTGEEGKNLTEYALWLKQRIKTLGDHDYLPVFHFDVYGTLGTVFNDNLDRIADYLARLEEKVAPHPLQIEGPVDLGSKERQIEGLKYLQEKLITLGSKVIIVADEWCNNLSDIKEFVDAGAGGMVQIKSPDLGGVNDIIEAVLYAKEKGTGAYLGGSCNETDVSAKITVHVGLATGPAQLLVKPGMGVDEGLTIMRNEMMRTLAILQRNKVTFQKKVG", "notes": "C-terminal His-tag"}, "B2": {"name": "3-methylaspartate ammonia lyase (CaMAL) (Citrobacter amalonaticus) (protein)", "chain": "MKIKQALFTAGYSSFYFDDQQAIKNGAGHDGFIYTGDPVTPGFTSVRQAGECVSVQLILENGAVAVGDCAAVQYSGAGGRDPLFLAEHFIPFLNDHIKPLLEGRDVDAFLPNARFFDKLRIDGNLLHTAVRYGLSQALLDATALASGRLKTEVVCDEWQLPCVPEAIPLFGQSGDDRYIAVDKMILKGVDVLPHALINNVEEKLGFKGEKLREYVRWLSDRILSLRSSPRYHPTLHIDVYGTIGLIFDMDPVRCAEYIASLEKEAQGLPLYIEGPVDAGNKPDQIRMLTAITKELTRLGSGVKIVADEWCNTYQDIVDFTDAGSCHMVQIKTPDLGGIHNIVDAVLYCNKHGMEAYQGGTCNETEISARTCVHVALAARPMRMLIKPGMGFDEGLNIVFNEMNRTIALLQTKD", "notes": "C-terminal His-tag"}, "B3": {"name": "3-methylaspartate ammonia lyase (CtMAL) (Clostridium tetanomorphum) (protein)", "chain": "MKIVDVLCTPGLTGFYFDDQRAIKKGAGHDGFTYTGSTVTEGFTQVRQKGESISVLLVLEDGQVAHGDCAAVQYSGAGGRDPLFLAKDFIPVIEKEIAPKLIGREITNFKPMAEEFDKMTVNGNRLHTAIRYGITQAILDAVAKTRKVTMAEVIRDEYNPGAEINAVPVFAQSGDDRYDNVDKMIIKEADVLPHALINNVEEKLGLKGEKLLEYVKWLRDRIIKLRVREDYAPIFHIDVYGTIGAAFDVDIKAMADYIQTLAEAAKPFHLRIEGPMDVEDRQKQMEAMRDLRAELDGRGVDAELVADEWCNTVEDVKFFTDNKAGHMVQIKTPDLGGVNNIADAIMYCKANGMGAYCGGTCNETNRSAEVTTNIGMACGARQVLAKPGMGVDEGMMIVKNEMNRVLALVGRRK", "notes": "C-terminal His-tag"}}, "key": {"[1]": {"target": "T1, 3-methylaspartate ammonia lyase (CaMAL) (Citrobacter amalonaticus, UniProt O66145)", "T1 construct": "C-terminal His-tag", "experiment": "steady-state inhibition kinetics of 3-methylaspartate deamination (UV assay)", "assay_type": "biochemical"}, "purified protein [2]": {"substrate": "C[C@H](C(=O)O)[C@H](N)C(=O)O", "experiment": "purified protein", "assay_type": "biochemical, Carboxydothermus hydrogenoformans", "settings": "Mg2+; pH 9.0; 30.0 °C"}, "purified protein [3]": {"substrate": "C[C@H](C(=O)O)[C@H](N)C(=O)O", "experiment": "purified protein", "assay_type": "biochemical, Citrobacter amalonaticus", "settings": "Mg2+ catalytic pocket; pH 9.0; 30.0 °C"}, "purified protein [4]": {"substrate": "N[C@@H](CC(=O)O)C(=O)O", "experiment": "purified protein", "assay_type": "biochemical, Clostridium tetanomorphum", "settings": "Mg2+; pH 9.0; 30.0 °C"}, "purified protein [5]": {"substrate": "C[C@H](C(=O)O)[C@H](N)C(=O)O", "experiment": "purified protein", "assay_type": "biochemical, Clostridium tetanomorphum", "settings": "Mg2+; pH 9.0; 30.0 °C"}}, "note": "Where two headings read alike, the source gives them in different places.", "data": [{"molecule": "NC(CC(=O)O)CC(=O)O", "note": "[β-glutamic acid]", "values": [{"measurement": "Ki", "setting": "[1]; read-out: Ki", "result": "71 ± 3", "unit": "mM"}]}, {"molecule": "NCCC[C@H](N)CC(=O)O", "note": "[β-lysine]", "values": [{"measurement": "Ki", "setting": "[1]", "result": "1.7 ± 0.4", "unit": "mM"}]}, {"molecule": "B1", "values": [{"measurement": "Km", "setting": "purified protein [2]", "result": "1380 ± 170", "unit": "µM"}, {"measurement": "kcat", "setting": "purified protein [2]", "result": "66 ± 2", "unit": "s⁻¹"}]}, {"molecule": "B2", "values": [{"measurement": "Km", "setting": "purified protein [3]", "result": "1000 ± 60", "unit": "µM"}, {"measurement": "kcat", "setting": "purified protein [3]", "result": "17.6 ± 0.3", "unit": "s⁻¹"}]}, {"molecule": "B3", "values": [{"measurement": "Km", "setting": "purified protein [4]", "result": "67000 ± 6000", "unit": "µM"}, {"measurement": "kcat", "setting": "purified protein [4]", "result": "1.6 ± 0.1", "unit": "s⁻¹"}, {"measurement": "Km", "setting": "purified protein [5]", "result": "3990 ± 610", "unit": "µM"}, {"measurement": "kcat", "setting": "purified protein [5]", "result": "7.6 ± 0.4", "unit": "s⁻¹"}]}]}
